Target: T1, AdpA (His-tagged) (Streptomyces coelicolor M145) (UniProt Q9L062)
T1 sequence: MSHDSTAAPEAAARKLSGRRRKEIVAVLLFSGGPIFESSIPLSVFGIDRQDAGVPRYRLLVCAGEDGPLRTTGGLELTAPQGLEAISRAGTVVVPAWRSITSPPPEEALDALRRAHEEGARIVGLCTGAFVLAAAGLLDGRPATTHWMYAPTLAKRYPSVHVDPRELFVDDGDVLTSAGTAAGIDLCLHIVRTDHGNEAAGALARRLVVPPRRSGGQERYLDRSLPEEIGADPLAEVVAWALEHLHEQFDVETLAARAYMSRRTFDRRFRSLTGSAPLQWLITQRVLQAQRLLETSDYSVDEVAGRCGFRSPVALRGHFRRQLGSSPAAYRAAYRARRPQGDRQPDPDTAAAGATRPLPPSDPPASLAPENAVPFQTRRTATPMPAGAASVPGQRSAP
Assay: EMSA
Details: EMSA: 20 mM Tris-HCl pH 8.0, 2 mM EDTA, 20 mM KCl, 0.5 mM DTT, 4% Ficoll-400, 2 µg poly(dI-dC), room temperature, 25 min; 20 nM probe

| Sequence | binding |
| --- | --- |
| TCATGGGCGCGCGTCCTGCGCACGCCGCCGGTTCGGTACTCCGAAGGTGCAGCGTCCGCGGAGCCGCGGAGATTCCCGCCCACCGTCGCATTTCGGCCACGCGAGGGCCCGGCGAGTGATGAGGATCTCGCCGCACACGGGCACCAAGGCTGGTA (double strand) [trxA5 (sco1084) promoter probe] | binds |
| GCGGCAGATCAGGACCCTCCAGGACTTCGGGTTCGACCTGGAGGAGACCCGCCCCTTCGTGGAGTGCCTGCGCGCCGGGCACCCGGAGGGCGACTCCTGTCCGGCGTCCCTCGTGGTCTACCGGCGCAAGCTGGCCGAGCTGGACACGCTGATCGAGCAGCTCACGTCGGTGCGCGCGCAGGTCGCCGCACAGCTGACGCGGGCCGAGGCGGCGGCTCCGGGGGGTCCGGAGCCCAAGTGCGAACTGGGAGGACACGGATGAAGACCAGCGGGGTGCCCGAGGTGACGGACGCGGACTT (double strand) [trxA2 (sco5438) promoter probe] | binds |

From article PMC9952706
